Drawing on PMC4106346, “The Oligomeric States of the Purified Sigma-1 Receptor Are Stabilized by Ligands” (The Journal of Biological Chemistry, 2014), this text covers response for six variants.

The chains are these.
B1: TM2 domain of in the TOXCAT construct (between MBP and ToxR) [guinea pig] / itself (parent)
chain: WVFVNAGGWMGAMCLLHASL

The variants in the assay derive from B1. Put plainly: TOXCAT. As to conditions: with itself;; read off a plot.
In the case of chain 1 G7L G8L, the response was -2.7 %GpA.

In the case of chain 1 G8I, the response was determined as 100 %GpA.

chain 1 G8L: the response came out at 89 %GpA.

On to chain 1 H17A, for which the response came out at 20 %GpA.

Turning to chain 1 G7L, the response came out at 77 %GpA.

Take chain 1 G7I: the response was found to be 94 %GpA.
